Changes are numbered by the printed parent chain.
Legend:
[1] = target: T1, extracellular domain of CLEC12A (amino acids 75 to 275) coupled to a His-tag (Sino Biological, cat.no. … (UniProt Q5QGZ9-1 75-275)); test: ELISA, extracellular domain of CLEC12A coated at 2 µg/ml
T1 construct: range 75-275; Bought protein; also called coated CLEC12A; isolated extracellular domain of CLEC12A; not shown: His-tag
T1 sequence (looked up): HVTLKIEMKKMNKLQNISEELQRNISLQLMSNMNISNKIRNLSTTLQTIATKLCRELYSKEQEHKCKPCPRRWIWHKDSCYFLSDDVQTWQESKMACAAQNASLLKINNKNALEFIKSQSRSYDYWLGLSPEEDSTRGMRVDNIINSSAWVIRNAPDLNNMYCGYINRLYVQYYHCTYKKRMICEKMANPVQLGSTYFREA

[2] = target: T2, CLEC12A expressed on cells (CLEC12A-transfected CHO cells; HL60 cells) (UniProt Q5QGZ9 1-265, limits assumed); test: flow cytometry on HL60 cells, optimized IgG concentration
T2 construct: whole, on cells; also called cell-expressed CLEC12A
T2 sequence (looked up): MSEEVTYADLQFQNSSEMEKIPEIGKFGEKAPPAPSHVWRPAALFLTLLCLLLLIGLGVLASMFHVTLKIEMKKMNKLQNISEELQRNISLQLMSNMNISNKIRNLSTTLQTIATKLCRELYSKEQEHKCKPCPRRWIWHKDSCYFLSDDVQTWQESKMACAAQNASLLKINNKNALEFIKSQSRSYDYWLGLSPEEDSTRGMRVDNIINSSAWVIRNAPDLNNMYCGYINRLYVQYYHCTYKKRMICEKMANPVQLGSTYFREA

[3] = target: T2, CLEC12A expressed on cells …; test: cell-based or functional assay
[4] = target: T2, CLEC12A expressed on cells …; test: flow cytometry on CLEC12A-transfected CHO cells

B1: 4327 CLEC12A IgG (antibody, V domains shown)
VH: QVQLVQSGAEVKKPGASVKVSCKASGYTFTSYYMHWVRQAPGQGLEWMGIINPSGGSTSYAQKFQGRVTMTRDTSTSTVYMELSSLRSEDTAVYYCAKGTTGDWFDYWGQGTLVTVSS
VL: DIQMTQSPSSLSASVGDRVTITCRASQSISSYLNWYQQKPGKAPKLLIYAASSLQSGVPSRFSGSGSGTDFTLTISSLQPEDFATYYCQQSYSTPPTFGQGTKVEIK
notes: Full length human IgG1
With B1 the optical density [1] was 1.31 and the mean fluorescent intensity [2] was 1560.

B2: 4331 CLEC12A IgG (antibody, V domains shown)
VH: B1 VH with Q1E, K98R, T100N, T101Y, W104E
VL: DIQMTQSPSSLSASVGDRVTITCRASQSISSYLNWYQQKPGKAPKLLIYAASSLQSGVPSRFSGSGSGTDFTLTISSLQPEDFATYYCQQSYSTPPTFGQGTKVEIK
notes: Full length human IgG1
With B2 the optical density [1] was 1.33 and the mean fluorescent intensity [2] was 1110.

B3: CD3XCLEC12A bsAb (3056x3116) with DM-Fc (bispecific antibody, V domains shown)
VH 1: QVQLVQSGGGVVQPGRSLRLSCVASGFTFSSYGMHWVRQAPGKGLEWVAAIWYNGRKQDYADSVKGRFTISRDNSKNTLYLQMNSLRAEDTAVYYCTRGTGYNWFDPWGQGTLVTVSS
VH 2: QVQLQESGPGLVKPSETLSLTCVVSGGSISSSNWWSWVRQPPGKGLEWIGEIYHSGSPDYNPSLKSRVTISVDKSRNQFSLKLSSVTAADTAVYYCAKVSTGGFFDYWGQGTLVTVSS
VL: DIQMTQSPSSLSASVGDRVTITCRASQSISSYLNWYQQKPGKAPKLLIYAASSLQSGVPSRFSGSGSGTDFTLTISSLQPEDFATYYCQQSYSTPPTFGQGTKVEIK
With B3 the “lysis of HL60 cells by AML patient derived T-cells (percentage of specific lysis relative to IgG)” value [3] was 68% and the “lysis of HL60 cells by healthy donor T cells (percentage of specific lysis relative to IgG)” value [3] was 69%.

B4: CD3 monospecific antibody (3056x3056) (antibody, V domains shown)
VH: B3 VH 1
VL: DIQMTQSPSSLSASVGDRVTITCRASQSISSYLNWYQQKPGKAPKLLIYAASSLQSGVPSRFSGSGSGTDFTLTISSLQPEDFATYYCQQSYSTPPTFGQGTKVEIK
notes: Full length bivalent monoclonal IgG; also called CD3 IgG
Binder B4 has a mean fluorescent intensity [4] of 282.

B5: candidate 3056x3116 CD3xCLEC12A bispecific IgG1 (bispecific antibody, V domains shown)
VH 1: B3 VH 1
VH 2: B3 VH 2
VL: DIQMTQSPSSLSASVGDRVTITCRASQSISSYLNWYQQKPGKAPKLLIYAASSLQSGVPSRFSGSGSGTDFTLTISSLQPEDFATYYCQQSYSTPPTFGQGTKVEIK
notes: Full length human IgG1 with wild type Fc and a common huVk1-39 light chain; The heavy chains were heterodimerised by known methods (Gunasekaran et al; WO2009/089004); also called CD3XCLEC12A WT Fc IgG1
For B5, the mean fluorescent intensity [4] was 5300.

B6: CLEC12A monospecific antibody (3116x3116) (antibody, V domains shown)
VH: B3 VH 2
VL: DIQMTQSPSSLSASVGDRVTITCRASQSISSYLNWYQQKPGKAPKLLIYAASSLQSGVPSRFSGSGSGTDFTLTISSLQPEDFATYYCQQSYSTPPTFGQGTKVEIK
notes: Bivalent IgG; also called CLEC12A benchmark antibody; CLEC12A benchmark IgG
B6 gave an optical density [1] of 1.42, a mean fluorescent intensity [2] of 1470 and a mean fluorescent intensity [4] of 4150.
